# Laboratory results: patent publication US10753947B2, “Methods for screening voltage-gated proteins” (D.E. Shaw Research, LLC, priority 2012, dated 2020)
# Like-named read-outs stand apart in the source and are kept apart here.
# Columns and labels:
# Kv1.3 = Kv1.3 (Homo sapiens, UniProt P22001); conditions: cited from earlier work
# [1] = tested on: Kv2.1 R293S/R294S/R300S (R-1S/R0S/R2S); test: Omega currents (Iω) of Kv2.1 R-1S/R0S/R2S in Xenopus oocytes, two electrode voltage-clamp; format: cell-based, human
# Description: The coding cDNAs of KV2.1 “wild-type” (hereinafter WT) base construct (hKv2.1-m7-c3 is human Kv2.1, residues 1-858, mutated to confer AgTx2 sensitivity and to remove extracellular cysteine residues) was synthesized (Entelchon GmbH) and cloned into the high expression vector pBSTA.
# Mutations Kv2.1 R294N (hereinafter R0N), Kv2.1 R300S (hereinafter R2S), Kv2.1 R294C/R300S (hereinafter R0C/R2S), Kv2.1 R293S/R294S (hereinafter R-1S/R0S), Kv2.1 R293S/R294C (hereinafter R-1S/R0C), Kv2.1 R293S/R294S/R300S (hereinafter R-1S/R0S/R2S), Kv2.1 R293S/R294C/R300S (hereinafter R-1S/R0C/R2S) were introduced using the QuikChange® Lightning Site-Directed Mutagenesis Kit (Stratagene) with mutagenic primers according to the manufacturer's instructions. All constructs were checked by restriction site mapping and sequencing.
# Transcripted cRNA was produced using the mMessage mMachine kit (Ambion Inc.). Two to four days past injection of cRNA into stage V-VI Xenopus oocytes (NASCO) potassium currents through the alpha pore (Iα) were recorded with the two electrode voltage-clamp technique making use of a TURBO TEC-05× amplifier (npi electronic GmbH). Currents were filtered at 10 kHz and sampled at 20 kHz. The bath solution contained (in mM): NaCl 96, KCl 2, CaCl2 1, MgCl2 1 and HEPES 5 (pH 7.5). Voltage-recording and current-injecting microelectrodes were filled with 3 M KCl and pulled to have resistances between 0.2 and 1 MΩ (see Stork et al., 2007). The pClamp software package v.10.1 (Molecular Devices, Inc.) was used for data acquisition and analysis.
# Recording of alpha currents (Iα): Pulses of 100 ms were applied from ˜60 to +60 mV in 10 mV steps at 1 Hz from a holding potential of ˜80 mV to the Kv2.1 channel constructs to measure alpha currents (Iα). Passive leak currents were subtracted online using a P/4 procedure: pClamp software generates a series of scaled-down replica sweeps of the main stimulus waveform. […] The cell's response to the subsweeps is used to calculate the degree of passive cellular current leak. This is then subtracted from acquired data on the associated input signal. Recording of omega currents (Iω): Pulses of 10 ms were applied from a holding potential of ˜80 to ˜300 mV in 20 mV steps at 0.3 Hz to the Kv2.1 channel constructs. Iω were recorded without leak subtraction.
# AgTx2 (Sigma Aldrich) was reconstituted according to manufacturer's instructions with 10 mM Tris, pH 7.5, containing 100 mM sodium chloride, 0.1% bovine serum albumin, and 1 mM EDTA. LaCl3 was from Sigma Aldrich; MTSEA, MTSES and MTSET were from Biotium.
# La^3+, AgTx2, MTSEA, MTSES and MTSET and were applied to Xenopus oocytes by means of a fast perfusion technique (ScreeningTool as described by Baburin et al., 2006). Origin software v.7.0 (OriginLab Corp.) was employed for data analysis. Inhibition of inward currents was defined as 1−Iω,drug/Iω,control, where Iω,drug is the current response in the presence of a given concentration of lanthanum (La^3+) and Iω, control is the control current through the omega pore. The concentration-inhibition curve was fitted using the Hill equation: Iω,drug/Iω,control=A+[…] where IC50 is the concentration at which Iω inhibition is half-maximal, C is the applied La^3+ concentration, A is the fraction of Iω current that blocked and nH is the Hill coefficient. Data are given as mean±SE (n=number of experiments).
# Kv2.1 = biological target: T1, Kv2.1 (Homo sapiens, UniProt Q14721); conditions: cited from earlier work; for IC50: Table 5, read-out: IC50, channel Kv2.1
# T1 sequence (Q14721 1-858): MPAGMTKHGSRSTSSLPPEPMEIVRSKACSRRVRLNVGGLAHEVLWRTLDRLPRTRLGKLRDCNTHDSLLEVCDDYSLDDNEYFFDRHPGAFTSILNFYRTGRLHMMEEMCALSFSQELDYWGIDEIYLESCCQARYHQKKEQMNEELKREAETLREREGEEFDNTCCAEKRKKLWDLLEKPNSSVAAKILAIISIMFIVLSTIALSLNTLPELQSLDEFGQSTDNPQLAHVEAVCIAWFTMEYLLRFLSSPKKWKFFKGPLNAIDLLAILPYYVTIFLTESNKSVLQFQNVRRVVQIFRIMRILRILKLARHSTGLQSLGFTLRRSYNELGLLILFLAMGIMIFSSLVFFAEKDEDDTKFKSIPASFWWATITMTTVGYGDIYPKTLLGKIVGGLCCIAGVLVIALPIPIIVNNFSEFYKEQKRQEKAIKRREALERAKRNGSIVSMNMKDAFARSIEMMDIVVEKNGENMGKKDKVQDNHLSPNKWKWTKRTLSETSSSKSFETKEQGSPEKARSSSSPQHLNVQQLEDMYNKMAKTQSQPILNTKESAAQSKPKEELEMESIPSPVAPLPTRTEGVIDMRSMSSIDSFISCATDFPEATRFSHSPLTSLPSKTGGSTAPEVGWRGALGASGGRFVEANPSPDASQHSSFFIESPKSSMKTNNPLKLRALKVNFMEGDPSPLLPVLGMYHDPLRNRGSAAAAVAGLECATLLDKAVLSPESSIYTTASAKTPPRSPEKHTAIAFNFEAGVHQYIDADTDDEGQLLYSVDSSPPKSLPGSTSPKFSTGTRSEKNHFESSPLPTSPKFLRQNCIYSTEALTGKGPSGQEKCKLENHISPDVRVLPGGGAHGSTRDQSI
# Sequence of Kv1.3 (P22001 whole entry): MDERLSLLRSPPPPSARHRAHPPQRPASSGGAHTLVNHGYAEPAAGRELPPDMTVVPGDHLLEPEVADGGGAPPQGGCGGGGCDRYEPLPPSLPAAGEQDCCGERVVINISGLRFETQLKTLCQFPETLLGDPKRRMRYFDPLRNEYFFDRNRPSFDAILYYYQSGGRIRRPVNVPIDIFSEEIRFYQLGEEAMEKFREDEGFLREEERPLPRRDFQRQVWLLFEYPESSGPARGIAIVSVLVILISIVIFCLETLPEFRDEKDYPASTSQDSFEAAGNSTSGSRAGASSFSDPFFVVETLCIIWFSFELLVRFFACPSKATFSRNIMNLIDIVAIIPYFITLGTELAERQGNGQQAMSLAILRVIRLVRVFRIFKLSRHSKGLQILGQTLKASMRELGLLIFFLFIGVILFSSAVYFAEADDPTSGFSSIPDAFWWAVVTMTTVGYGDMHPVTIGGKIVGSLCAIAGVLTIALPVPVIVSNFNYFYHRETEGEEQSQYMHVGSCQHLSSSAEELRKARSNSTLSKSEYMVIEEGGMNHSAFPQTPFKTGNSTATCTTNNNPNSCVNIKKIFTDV
Substance,"IC50 (Kv1.3; Table 3, read-out: IC50 Values of Kv1.3 ion channel modulating agent) [nM]","IC50 (Kv1.3; Table 5, read-out: IC50, channel Kv1.3) [nM]",Sensitivity of Kv1.3 to the scorpion toxin (Kv1.3; text b541),"Inhibition of inward currents at negative potentials (Iω) ([1]; 10 nM AgTx2, after 5 minutes)",IC50 (Kv2.1) [nM],Sensitivity of Kv2.1 to the scorpion toxin (Kv2.1; text b541),"IC50, channel Kv1.3 (Kv1.3; Table 5, result in words)","Effect on omega current (Iω) ([1]; 100 nM GxTx-1E, 5 minutes application)"
Agitotoxin-2 (GVPINVSCTGSPQCIKPCKDAGMRFGKCMNRKCHCTPK) [AgTx2],0.004,0.004,sensitive,not inhibited,> 2000,insensitive,–,–
Guangxitoxin (EGECGGFWWKCGSGKPACCPKYVCSPKWGLCNFPMP) [GxTx-1E],–,–,–,–,2,–,No effect,enhanced
